# T1: 5&6/5-K12N,6-N12K (Arabidopsis thaliana, UniProt Q9SF38 SEQ:124-197)
# T1 chain: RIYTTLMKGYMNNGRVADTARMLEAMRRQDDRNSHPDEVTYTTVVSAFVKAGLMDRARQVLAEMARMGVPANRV
# T2: 5&6/5-K12M,6-N12R (Arabidopsis thaliana, UniProt Q9SF38 SEQ:124-197)
# T2 chain: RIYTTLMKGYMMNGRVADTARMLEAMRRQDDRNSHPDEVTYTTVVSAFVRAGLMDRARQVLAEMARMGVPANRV
# T3: HCF152/10&11 (Arabidopsis thaliana, UniProt Q9SF38 SEQ:124-195)
# T3 sequence: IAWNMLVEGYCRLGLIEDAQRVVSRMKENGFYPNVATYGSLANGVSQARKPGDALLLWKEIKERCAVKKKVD
# T4: HCF152/8&9 (Arabidopsis thaliana, UniProt Q9SF38 SEQ:124-195)
# T4 chain: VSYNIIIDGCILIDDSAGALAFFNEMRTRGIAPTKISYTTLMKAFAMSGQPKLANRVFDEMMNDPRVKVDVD
# T5: 5&6/5-T5I (Arabidopsis thaliana, UniProt Q9SF38 SEQ:123-204)
# T5 chain: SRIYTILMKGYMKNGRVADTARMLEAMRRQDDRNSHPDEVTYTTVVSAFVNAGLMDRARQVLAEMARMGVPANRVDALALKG
# T6: 5&6/5-M11A (Arabidopsis thaliana, UniProt Q9SF38 SEQ:123-204)
# T6 chain: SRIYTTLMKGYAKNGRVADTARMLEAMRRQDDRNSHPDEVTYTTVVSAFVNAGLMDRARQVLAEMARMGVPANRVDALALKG
# T7: 5&6/5-M11I (Arabidopsis thaliana, UniProt Q9SF38 SEQ:123-204)
# T7 chain: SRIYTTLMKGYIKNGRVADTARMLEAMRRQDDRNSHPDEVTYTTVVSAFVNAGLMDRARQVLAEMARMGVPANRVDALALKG
# T8: 5&6/5-G14A (Arabidopsis thaliana, UniProt Q9SF38 SEQ:124-197)
# T8 chain: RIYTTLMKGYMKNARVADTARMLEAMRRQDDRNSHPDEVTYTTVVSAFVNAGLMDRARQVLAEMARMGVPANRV
# T9: 5&6/5-G14D (Arabidopsis thaliana, UniProt Q9SF38 SEQ:124-197)
# T9 chain: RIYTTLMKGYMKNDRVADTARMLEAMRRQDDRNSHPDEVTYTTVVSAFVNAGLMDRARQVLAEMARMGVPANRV
# T10: 8&9/8-D8K (Arabidopsis thaliana, UniProt Q9SF38 SEQ:124-194)
# T10 chain: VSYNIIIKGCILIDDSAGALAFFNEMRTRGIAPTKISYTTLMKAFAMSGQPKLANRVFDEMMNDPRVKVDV
# T11: HCF152/5&6 (Arabidopsis thaliana, UniProt Q9SF38 SEQ:124-197)
# T11 chain: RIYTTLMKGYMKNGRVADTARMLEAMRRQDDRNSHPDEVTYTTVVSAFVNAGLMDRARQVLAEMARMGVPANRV
# T12: 6&7/7-N4T (Arabidopsis thaliana, UniProt Q9SF38 SEQ:124-195)
# T12 chain: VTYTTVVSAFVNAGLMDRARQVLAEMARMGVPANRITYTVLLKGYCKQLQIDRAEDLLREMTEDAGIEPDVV
# T13: 6&7/6-V1R (Arabidopsis thaliana, UniProt Q9SF38 SEQ:124-195)
# T13 chain: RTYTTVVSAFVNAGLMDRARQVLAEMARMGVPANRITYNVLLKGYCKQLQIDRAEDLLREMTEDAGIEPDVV
# T14: 6&7/6-S8K (Arabidopsis thaliana, UniProt Q9SF38 SEQ:124-195)
# T14 chain: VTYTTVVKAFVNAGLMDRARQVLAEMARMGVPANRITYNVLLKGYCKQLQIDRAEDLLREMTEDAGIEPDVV
# T15: 5&6/5-K12H (Arabidopsis thaliana, UniProt Q9SF38 SEQ:124-197)
# T15 chain: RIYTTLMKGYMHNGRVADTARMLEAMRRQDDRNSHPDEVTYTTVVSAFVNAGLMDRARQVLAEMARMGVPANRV
# T16: 8&9/8-D8K,9-K8D (Arabidopsis thaliana, UniProt Q9SF38 SEQ:124-194)
# T16 chain: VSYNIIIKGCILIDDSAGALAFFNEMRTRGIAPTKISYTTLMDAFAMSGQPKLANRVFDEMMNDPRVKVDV
# T17: 8&9/9-K8D (Arabidopsis thaliana, UniProt Q9SF38 SEQ:124-194)
# T17 chain: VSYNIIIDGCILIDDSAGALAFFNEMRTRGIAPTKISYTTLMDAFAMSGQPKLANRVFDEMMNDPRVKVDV
# T18: 5&6/5-N13L (Arabidopsis thaliana, UniProt Q9SF38 SEQ:123-204)
# T18 chain: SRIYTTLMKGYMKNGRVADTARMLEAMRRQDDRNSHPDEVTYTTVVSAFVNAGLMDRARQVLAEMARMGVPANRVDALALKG
# T19: 5&6/5-N13A (Arabidopsis thaliana, UniProt Q9SF38 SEQ:123-204)
# T19 chain: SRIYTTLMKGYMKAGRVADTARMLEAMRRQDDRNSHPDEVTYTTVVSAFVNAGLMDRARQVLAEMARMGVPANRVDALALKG
# T20: CAR4/6 (I1L) (Arabidopsis thaliana, UniProt O22137 SEQ:124-155)
# T20 chain: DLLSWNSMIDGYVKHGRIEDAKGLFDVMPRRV
# T21: CAR4/6 (CRR4 PPR motif 6) (Arabidopsis thaliana)
# T21 chain: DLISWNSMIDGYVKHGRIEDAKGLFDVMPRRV
# T22: HCF152/9&10 (Arabidopsis thaliana, UniProt Q9SF38 SEQ:124-194)
# T22 sequence: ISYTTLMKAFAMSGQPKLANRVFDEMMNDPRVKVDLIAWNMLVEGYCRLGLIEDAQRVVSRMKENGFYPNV
# T23: HCF152/2&3 (Arabidopsis thaliana, UniProt Q9SF38 SEQ:124-194)
# T23 sequence: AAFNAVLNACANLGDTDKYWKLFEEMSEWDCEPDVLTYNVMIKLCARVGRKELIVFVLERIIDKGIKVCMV
# T24: HCF152/7&8 (Arabidopsis thaliana, UniProt Q9SF38 SEQ:124-196)
# T24 chain: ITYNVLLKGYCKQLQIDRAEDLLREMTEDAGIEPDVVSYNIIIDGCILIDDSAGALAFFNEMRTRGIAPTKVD
# B1: BD120 (petB) (ssRNA)
# RNA: CUGGAUGGAAUUUCAGUGAAUUAGACUGAGAAGAAUCUUGAAGUUCUAGCUUUUAGCUCGAUACAAAAAAGUAAAGUAUGCAGGUCUAACAAUUUUAGCCUAUUCUCCUUUGGUAGUUCG
# Experiments:
# [1] = target: T1, 5&6/5-K12N,6-N12K; assay: EMSA; affinity improved vs 5-K12N; value in figure; details: tags: N-terminal thioredoxin, C-terminal His; label: 32P-UTP internal
# Protocol: (§1) The RNA binding activity of the mini PPR protein was analyzed by gel shift method. […] Then, to the reaction solution was added 4 microliters of 80% glycerol solution, and 10 μL was developed in 10% nondenaturing polyacrylamide gel comprising 1×TBE (89 mM Tris-HCl, 89 mM Boric acid, and 2 mM EDTA) and the gel was dried after electrophoresis. The radioactivity of RNA in the gel was measured with Bioimaging Analyzer BAS2000 (From Fujifilm). […] The binding between protein and RNA was quantified based on the results in FIGS. 1C-H (FIG. 1B), and evaluated by determining the disassociation constant (Kd) (FIG. 2C).
# [2] = target: T2, 5&6/5-K12M,6-N12R; assay: EMSA; partly restored vs 6-N12R; details: tags: N-terminal thioredoxin, C-terminal His; label: 32P-UTP internal
# Protocol: as §1
# [3] = target: T3, HCF152/10&11; assay: EMSA; 6 mM MgCl2, 30 mM KCl, pH 7.9, 25 C; details: tags: N-terminal thioredoxin, C-terminal His; label: 32P-UTP internal
# Protocol: as §1
# [4] = target: T4, HCF152/8&9; assay: EMSA; 6 mM MgCl2, 30 mM KCl, pH 7.9, 25 C; details: tags: N-terminal thioredoxin, C-terminal His; label: 32P-UTP internal
# Protocol: as §1
# [5] = target: T5, 5&6/5-T5I; assay: EMSA; position 5 not among those with 10-fold or more reduction (position-level); details: tags: N-terminal thioredoxin, C-terminal His; label: 32P-UTP internal
# Protocol: (§2) The RNA binding activity of the mini PPR protein was analyzed by gel shift method. […] Then, to the reaction solution was added 4 microliters of 80% glycerol solution, and 10 μL was developed in 10% nondenaturing polyacrylamide gel comprising 1×TBE (89 mM Tris-HCl, 89 mM Boric acid, and 2 mM EDTA) and the gel was dried after electrophoresis. The radioactivity of RNA in the gel was measured with Bioimaging Analyzer BAS2000 (From Fujifilm). […] This is because the molecular weight of the 32P-labeled RNA/protein conjugate is larger than the molecular weight of the 32P-labeled RNA alone and thus mobility in electrophoresis had become slower. The binding between protein and RNA was quantified based on the results in FIGS. 1C-H (FIG. 1B), and evaluated by determining the disassociation constant (Kd) (FIG. 2C).
# (§3) Using HCF152/5&6 as the model, mini PPR proteins having one amino acid substitution introduced centering on the aforementioned positions (1st, 2nd, 4th, 5th, 8th, 9th, 11th, and 12th) were prepared. The amino acid substitutions were based on substitution to alanine. […] Affinity with RNA was analyzed by the same gel shift method as above (FIG. 3), and the affinity with the RNA was evaluated with Kd (FIG. 4B).
# [6] = target: T6, 5&6/5-M11A; assay: EMSA; position 11 not among those with 10-fold or more reduction (position-level); details: tags: N-terminal thioredoxin, C-terminal His; label: 32P-UTP internal
# Protocol: as §2, §3
# [7] = target: T7, 5&6/5-M11I; assay: as above; details: tags: N-terminal thioredoxin, C-terminal His; label: 32P-UTP internal
# Protocol: as §2, §3
# [8] = target: T8, 5&6/5-G14A; assay: EMSA; position 14 not among those with 10-fold or more reduction (position-level); details: tags: N-terminal thioredoxin, C-terminal His; label: 32P-UTP internal
# Protocol: as §2, §3
# [9] = target: T9, 5&6/5-G14D; assay: as above; details: tags: N-terminal thioredoxin, C-terminal His; label: 32P-UTP internal
# Protocol: as §2, §3
# [10] = target: T10, 8&9/8-D8K; assay: EMSA; no change vs 8&9; details: tags: N-terminal thioredoxin, C-terminal His; label: 32P-UTP internal
# Protocol: as §2
# [11] = target: T11, HCF152/5&6; assay: EMSA; 6 mM MgCl2, 30 mM KCl, pH 7.9, 25 C; details: tags: N-terminal thioredoxin, C-terminal His; label: 32P-UTP internal
# Protocol: as §2
# [12] = target: T12, 6&7/7-N4T; assay: EMSA; affinity improved vs 6&7; value in figure; details: tags: N-terminal thioredoxin, C-terminal His; label: 32P-UTP internal
# Protocol: as §1
# [13] = target: T13, 6&7/6-V1R; assay: EMSA; affinity improved vs 6&7; value in figure; details: tags: N-terminal thioredoxin, C-terminal His; label: 32P-UTP internal
# Protocol: as §1
# [14] = target: T14, 6&7/6-S8K; assay: EMSA; affinity improved vs 6&7; value in figure; details: tags: N-terminal thioredoxin, C-terminal His; label: 32P-UTP internal
# Protocol: as §1
# [15] = target: T15, 5&6/5-K12H; assay: EMSA; Kd almost equivalent to wild type 5&6; value in figure; details: tags: N-terminal thioredoxin, C-terminal His; label: 32P-UTP internal
# Protocol: as §2
# [16] = target: T16, 8&9/8-D8K,9-K8D; assay: EMSA; no significant difference vs 8&9; details: tags: N-terminal thioredoxin, C-terminal His; label: 32P-UTP internal
# Protocol: as §1
# [17] = target: T17, 8&9/9-K8D; assay: EMSA; no significant difference vs 8&9; details: tags: N-terminal thioredoxin, C-terminal His; label: 32P-UTP internal
# Protocol: as §1
# [18] = target: T18, 5&6/5-N13L; assay: EMSA; position 13 not among those with 10-fold or more reduction (position-level); details: tags: N-terminal thioredoxin, C-terminal His; label: 32P-UTP internal
# Protocol: as §2, §3
# [19] = target: T19, 5&6/5-N13A; assay: as above; details: tags: N-terminal thioredoxin, C-terminal His; label: 32P-UTP internal
# Protocol: as §2, §3
# [20] = target: T20, CAR4/6 (I1L); assay: EMSA; did not bind A; details: tags: N-terminal thioredoxin, C-terminal His; label: 5'-32P
# [21] = target: T21, CAR4/6 (CRR4 PPR motif 6); assay: EMSA; preference for A; details: tags: N-terminal thioredoxin, C-terminal His; label: 5'-32P
# [22] = target: T11, HCF152/5&6; assay: EMSA; A>G>U; 200 nM protein; details: tags: N-terminal thioredoxin, C-terminal His; label: 5'-32P
# Protocol: (§4) The binding specificity of the mini PPR proteins were analyzed by gel shift method. […] Then, to the reaction solution was added 4 μl of 80% glycerol solution, and 10 μL was developed in 10% nondenaturing polyacrylamide gel comprising 1×TBE (89 mM Tris-HCl, 89 mM Boric acid, and 2 mM EDTA) and the gel was dried after electrophoresis. The radioactivity of RNA in the gel was measured with Bioimaging Analyzer BAS2000 (From Fujifilm).
# [23] = target: T22, HCF152/9&10; assay: EMSA; A>G>U; 200 nM protein; details: tags: N-terminal thioredoxin, C-terminal His; label: 5'-32P
# Protocol: as §4
# [24] = target: T23, HCF152/2&3; assay: EMSA; A>G>U; 200 nM protein; details: tags: N-terminal thioredoxin, C-terminal His; label: 5'-32P
# Protocol: as §4
# [25] = target: T24, HCF152/7&8; assay: EMSA; A>U>G; 200 nM protein; details: tags: N-terminal thioredoxin, C-terminal His; label: 5'-32P
# Protocol: as §4
binder,measurement,setting,value
B1,binding result,[1],binds
same,Kd,[2],473 nM
same,Kd,[3],5240 nM
same,Kd,[4],5.3 nM
same,binding result,[5],binds
same,binding result,[6],binds
same,binding result,[7],binds
same,binding result,[8],binds
same,binding result,[9],binds
same,binding result,[10],binds
same,Kd,[11],21.1 nM
same,binding result,[12],binds
same,binding result,[13],binds
same,binding result,[14],binds
same,binding result,[15],binds
same,binding result,[16],binds
same,binding result,[17],binds
same,binding result,[18],binds
same,binding result,[19],binds
AUCGAAAAAAAAAAAAAAAAAAAAAAAAA (ssRNA) [LA25],binding result,[20],no binding
same,binding result,[21],binds
same,binding result,[22],binds
same,binding result,[23],binds
same,binding result,[24],binds
same,binding result,[25],binds
